Reference: the supplement of paper PMC11865577

Assays:
Experiment in all cases: pull-down binding Z-score (relative to library population); higher = stronger binding
TO-N3 (biotin conjugate) = conditions: RNA library: Library-2
In short: (§1)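 Heat-folded RNA library (1 μg, Cy5 or Cy3 end label, phosphate/NaCl/KCl buffer) was captured for 60 min at 25 °C on streptavidin beads displaying 100 pmol of biotin-conjugated small molecule, then washed three times. The bound fraction, eluted in hot SDS, was hybridised to a DNA barcode microarray at 55.5 °C for 20 h. Z-scores for binding were taken against the library mean and standard deviation after beads-only subtraction and trimmed averaging of replicate barcoded probes.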

[1] = tested on: TO-3-N3 (biotin conjugate); conditions: RNA library: Library-2
In short: as §1

[2] = tested on: G-clamp-N3 (biotin conjugate); conditions: RNA library: Library-1 (pre-miRNA loops + repeats)
In short: as §1

[3] = tested on: TO-N3-2 (biotin conjugate); conditions: RNA library: Library-2
In short: as §1

[4] = tested on: TO-3-N3-2 (biotin conjugate); conditions: RNA library: Library-2
In short: as §1

Sequence	pull-down binding Z-score (TO-N3 (biotin conjugate))	pull-down binding Z-score [1]	pull-down binding Z-score [2]	pull-down binding Z-score [3]	pull-down binding Z-score [4]
AUCAGCAGAGACAUGAGGUGAUCAAAAACCUUUUUUCAAAGCAGUGGG [hsa-mir-4300]	0.796	0.48	-0.911	0.438	0.276
AGGUUGGCUGGGCCAGGCCUGACCU [hsa-mir-4722]	0.435	0.0532	0.156	1.16	-0.00273
UUGUUCGUUGCAUUUUUAGGAACAA [hsa-mir-3613]	-1.52	-1.11	1.4	-1.23	-0.623
UGUGGCAGUGGCAGAGGUCGCUACA [hsa-mir-6856]	0.704	0.436	1.12	1.13	0.0517
AAUUUUCUCUUGUCUAAAAGAAAAGAACG [hsa-mir-521-2]	-0.996	-0.905	-0.762	-0.765	-0.0994
GGGGUAGAAGCCACCCG [hsa-mir-4466]	0.492	0.149	0.458	1.46	0.0166
CCAAGCUUAGUUUGG [hsa-mir-1302-11_1302-10_1302-3_1302-2_1302-9]	0.572	0.74	0.00542	-0.61	-0.446
GAGACUUUAAAAGCGUCUC [hsa-mir-3926-1]	-0.993	-0.747	0.184	-1.01	-0.343
CCUGUUUUACAAAUAAGGAAAUAAACUCAGG [hsa-mir-1321]	-0.94	-0.59	-1.01	-1.08	-0.326
AGAAGGCCUAUGGUGAUUUGCAUUCUU [hsa-mir-6875]	-0.072	-0.099	0.997	-0.105	0.226
GGGAACUGGUGAGUUGUACAUAGAAAUGCUUUCUAACUCC [hsa-mir-4499]	0.112	-0.123	0.204	0.548	-0.00162
CUUUCCUUUUUGUCUGUACUGGGAAG [hsa-mir-373]	-0.709	-0.365	0.709	-1.12	-0.328
GGAGAGGAUCCACCUGUCCUGUCC [hsa-mir-6165]	0.374	0.416	0.202	0.393	-0.113
CUAAGCUAUGGACUGCUAUGGACUGCUAG [hsa-mir-4473]	0.172	-0.193	-0.249	0.578	0.196
CUUCAGAGCAGGGUUUGGUCUGUGCUUCUCUG [hsa-mir-6719]	-0.222	-0.415	0.184	0.452	-0.245
UUUCUCUUGUCCAAAGGAAAAGAAG [hsa-mir-524]	-0.636	-0.644	-0.493	-0.747	-0.376
GCCCGGGCACCGCCCCUU [hsa-mir-718]	0.203	-0.0729	-1.53	0.973	-0.109
GUAUGAGUGUAUUGGUCUUCAUAA [hsa-mir-9-2]	0.0907	-0.226	-0.373	0.481	0.203
UUAAAUGUGUCAUUUAAAAAUUCAG [hsa-mir-1972-1_1972-2]	-0.138	-0.0749	-1.87	-0.257	0.161
GAAGGGGAGUUUCCCUCUAUUCCCUUC [hsa-mir-3679]	-0.0396	0.265	-0.729	-0.594	-0.155
GUGUGGAGAGAGCACUGAGCCUGCCCACC [hsa-mir-6849]	0.55	-0.134	-0.498	1.45	-0.152
UUUUCAGUUCCUGAGAUC [hsa-mir-4287]	-0.128	-0.0736	-1.15	-0.441	-0.202
GCAGGCCGUGAACUCGUCGAGCUGCGCGUGCGGCCGGUGCUCA [hsa-mir-1199]	1.47	0.55	0.693	2.02	0.103
GCAGAUUCUCUCUCUC [hsa-mir-4279]	0.189	0.105	-1.39	0.316	-0.0368
GAAGGGAAGCUGGGAACCUGACUGCCUC [hsa-mir-6867]	0.961	0.688	-0.151	1.66	0.402

Sequence	pull-down binding Z-score (TO-N3 (biotin conjugate))	pull-down binding Z-score [1]	pull-down binding Z-score [2]	pull-down binding Z-score [3]	pull-down binding Z-score [4]
UGGUGGGAGAGGAGCCCCACUGUGGAAGUCUGACCCCCACA [hsa-mir-6785]	1.64	1.05	-0.814	1.86	1.01
CUUUUAUGUGCCUUGAUAUAAAAG [hsa-mir-3910-2]	-0.644	-0.556	-0.124	-0.682	-0.297
CGCCAGCUCGCUGACAGCACGACUCAGGGCG [hsa-mir-658]	0.25	-0.127	0.902	1.15	0.383
AACAGCUUUGCGAAGUGUUGUU [hsa-mir-4425]	-0.113	0.104	-0.651	-0.553	-0.137
AAGACACUAUCUGACAACAACAGGGCUCUU [hsa-mir-550b-2]	0.93	0.681	0.0423	0.234	0.201
CCUUCUGUAUACAUGUAUACAGGAGGAAGG [hsa-mir-4716]	0.495	0.507	0.64	0.00714	0.0583
UUUGGCUGCCAAAAGAAAUGGCCAAA [hsa-mir-548at]	-0.547	-0.656	-0.71	-0.668	-0.331
GACCCCCAUGCACCCCUGUGGGCCCCUGGCAUC [hsa-mir-1257]	0.727	0.219	-1.71	1.21	-0.0626
CAUUGGUGUAAAGCUGGAGACCCACUG [hsa-mir-324]	0.738	0.527	0.528	1.09	0.0332
AUAGUUUUAGGGUCACACCCACCACUGGGAGAUAACUAU [hsa-let-7a-1]	0.607	0.853	0.294	-0.0919	0.205
UUGUAAUAGUGUAGAAUGUUGGUUAAC [hsa-mir-591]	0.358	-0.133	0.797	0.44	0.537
UUUUGCCAUUACUUUCAAUGGCAAAA [hsa-mir-548aa-2]	-0.176	0.127	-0.284	-1.08	-0.23
UUGCCCAA [hsa-mir-548bb]	-0.211	-0.0547	0.764	-0.332	-0.317
CAGAGGGAGGCCAAGAAGACCUCUG [hsa-mir-4793]	-0.402	-0.656	2.73	0.354	-0.445
GAAGCUGUGAAGCCACAGAUGGGCUUU [hsa-mir-30a]	0.224	-0.0778	0.763	0.641	0.0568
CAGUUGUACUGUGGCUG [hsa-mir-1291]	0.076	0.0428	0.37	0.0227	0.154
UGUGGUCACCCACUCU [hsa-mir-4316]	0.0225	-0.237	-0.668	0.297	-0.0165
GGGAUGAGCCCUGGCUCUGUUUCCUAG [hsa-mir-378h]	0.385	0.0333	-0.127	0.596	-0.0124
UUUUAGAA [hsa-mir-4443]	-0.913	-0.568	-1.3	-1.35	-0.535
CUUUUUGCCACCUGAGCACAGUCAGCAGUCAGCAUAAAA [hsa-mir-4275]	1.13	0.6	0.39	1.15	0.292
CUUUCUGUUGGCUAAAAGAAAAGAAAG [hsa-mir-518e]	-0.366	-0.396	1.11	0.0576	0.129
GUGAUAGGAUUUAUCAC [hsa-mir-4999]	-0.436	-0.154	-0.554	-0.819	-0.295
UGAACAGUGAUUGGUUUCCGCUUUGUUCA [hsa-mir-27b]	0.133	0.138	-0.672	-0.317	0.275
CAAAACUCCGUACAUUGCUAUUUUGC [hsa-mir-3064]	-0.39	-0.563	-0.316	-0.105	0.0575
UGUAAAUAACUACAAUUCUCUUAACUCCGUAGCAGUUGC [hsa-mir-7844]	-0.11	-0.267	-1.5	0.177	-0.0721

Sequence	pull-down binding Z-score (TO-N3 (biotin conjugate))	pull-down binding Z-score [1]	pull-down binding Z-score [2]	pull-down binding Z-score [3]	pull-down binding Z-score [4]
UGGUGGAGAUGGAGAGCCCUGAGCCUCCA [hsa-mir-6777]	0.727	0.164	0.173	1.17	-0.0154
AAAAUUACUUUUGGUAAAUACAGUUUU [hsa-mir-559]	-0.344	-0.101	-0.546	-1.04	0.00825
AUCUGAUGUUGAAUACUCUUUAAGU [hsa-mir-1245a]	-0.322	-0.143	-1.01	-0.685	-0.281
UGCUCCUUGAACAGGAGGAGCA [hsa-mir-4708]	-0.683	-0.48	1.09	-0.535	-0.405
GAGUGAAUC [hsa-mir-3610]	-0.454	-0.31	-0.304	-0.552	-0.35
GACAGGCUGGCCUCUGGAUGACCUGC [hsa-mir-5189]	1.4	1.18	0.679	1.37	-0.186
UUCUAAUGCCAAGAA [hsa-mir-1279]	0.773	0.835	-0.241	-0.306	-0.117
UCUUAGACUAUUACAAGA [hsa-mir-3672]	0.614	0.922	-0.633	-0.526	0.0159
GGGCGUGGUGGACAGCGAUGCAUCCC [hsa-mir-6803]	0.84	0.532	1.56	1.19	0.187
UAUAUGCUUUUUAAAUGGGGCACAGA [hsa-mir-5586]	-0.26	-0.275	2	-0.177	0.0323
GACGAUUUGAAUUAAUAAAUUC [hsa-mir-579]	0.153	0.329	0.799	-0.419	0.0871
UGCUCUGAUGAAGACCCAUGUGGC [hsa-mir-621]	0.589	-0.162	-0.6	1.51	0.285
GAAUGAAAAAAUGAAUCAUC [hsa-mir-421]	-0.29	-0.311	0.509	-0.0724	0.0689
CAGGCUGGUCUCAAACUCCUGGUCUG [hsa-mir-1285-1]	-0.217	-0.202	-0.288	-0.123	-0.352
GGUGGGUGGGAAGUAAGAUCUGACCUGGACUCCAUCCCACCCACC [hsa-mir-4640]	5.35	4.87	0.122	4.38	4.64
AUCUGAGGUGACUGGCACAGAAGACUCAGG [hsa-mir-6735]	0.673	0.238	-0.394	0.797	0.101
GGGGCUGGUUGUCUA [hsa-mir-6080]	0.377	0.297	0.388	0.516	-0.165
CUGUUUGUUGUCUGAGAAAAAACA [hsa-mir-520g_520h]	-0.598	-0.638	1.11	-0.229	-0.125
GGCGGGCGGCGGUGCCCGUC [hsa-mir-4449]	1.53	0.739	1.71	0.91	0.0801
CCCAGCCUUGGCGUUCAGGUGCUGAG [hsa-mir-3150b]	-0.022	-0.0824	-0.3	0.723	-0.23
UGUGGCCUUUUUGCCUUUUCUAAAGGCCACAU [hsa-mir-1250]	-0.489	-0.234	0.00873	-0.551	-0.241
UUCGCAUUAUUUAAUGAUGCCCA [hsa-mir-323b]	-0.467	-0.392	-0.751	-0.486	-0.241
GGGAGCGGCCCUCACAUUGAUGGCUCCU [hsa-mir-6727]	0.313	0.264	1.42	0.257	-0.052
CUGCUGAAUCUUCAGAAAGG [hsa-mir-3142]	-0.164	-0.432	-0.0627	0.135	-0.178
